Measurements published in the MegaScale stability set (Tsuboyama et al. 2023).

B1: EHEE_rd2_1257 (parent)
chain: EEERTFTNEEEARKAKKEAEKRGLRVTVTKDGTTWRVRIG

Variants of: B1
Test: folding stability dG (cDNA display proteolysis); higher = more stable
Conditions: PBS, room temperature

Variant | folding stability dG
EEERTFTKEEEARKAKKEAEKRGLRVTVTKDGTTWRVRIG [N8K] | 1.5 kcal/mol
EEERTFTFEEEARKAKKEAEKRGLRVTVTKDGTTWRVRIG [N8F] | 1.09 kcal/mol
EEERTFTDEEEARKAKKEAEKRGLRVTVTKDGTTWRVRIG [N8D] | 1.76 kcal/mol
EEERTMTNEEEARKAKKEAEKRGLRVTVTKDGTTWRVRIG [F6M] | 0.184 kcal/mol
EEERTLTNEEEARKAKKEAEKRGLRVTVTKDGTTWRVRIG [F6L] | 0.227 kcal/mol
EEERTTTNEEEARKAKKEAEKRGLRVTVTKDGTTWRVRIG [F6T] | -0.137 kcal/mol
EEERTWTNEEEARKAKKEAEKRGLRVTVTKDGTTWRVRIG [F6W] | 0.194 kcal/mol
EEERTVTNEEEARKAKKEAEKRGLRVTVTKDGTTWRVRIG [F6V] | 0.21 kcal/mol
EEERTYTNEEEARKAKKEAEKRGLRVTVTKDGTTWRVRIG [F6Y] | 2.19 kcal/mol
YEERTFTNEEEARKAKKEAEKRGLRVTVTKDGTTWRVRIG [E1Y] | 3.06 kcal/mol
GEERTFTNEEEARKAKKEAEKRGLRVTVTKDGTTWRVRIG [E1G] | 2.25 kcal/mol
TEERTFTNEEEARKAKKEAEKRGLRVTVTKDGTTWRVRIG [E1T] | 2.19 kcal/mol
VEERTFTNEEEARKAKKEAEKRGLRVTVTKDGTTWRVRIG [E1V] | 2.57 kcal/mol
MEERTFTNEEEARKAKKEAEKRGLRVTVTKDGTTWRVRIG [E1M] | 2.38 kcal/mol
DEERTFTNEEEARKAKKEAEKRGLRVTVTKDGTTWRVRIG [E1D] | 2.1 kcal/mol
IEERTFTNEEEARKAKKEAEKRGLRVTVTKDGTTWRVRIG [E1I] | 2.74 kcal/mol
PEERTFTNEEEARKAKKEAEKRGLRVTVTKDGTTWRVRIG [E1P] | 2.07 kcal/mol
NEERTFTNEEEARKAKKEAEKRGLRVTVTKDGTTWRVRIG [E1N] | 1.87 kcal/mol
WEERTFTNEEEARKAKKEAEKRGLRVTVTKDGTTWRVRIG [E1W] | 3.19 kcal/mol
HEERTFTNEEEARKAKKEAEKRGLRVTVTKDGTTWRVRIG [E1H] | 2.05 kcal/mol
LEERTFTNEEEARKAKKEAEKRGLRVTVTKDGTTWRVRIG [E1L] | 2.33 kcal/mol

Variant | folding stability dG
QEERTFTNEEEARKAKKEAEKRGLRVTVTKDGTTWRVRIG [E1Q] | 1.94 kcal/mol
AEERTFTNEEEARKAKKEAEKRGLRVTVTKDGTTWRVRIG [E1A] | 2.21 kcal/mol
FEERTFTNEEEARKAKKEAEKRGLRVTVTKDGTTWRVRIG [E1F] | 2.99 kcal/mol
KEERTFTNEEEARKAKKEAEKRGLRVTVTKDGTTWRVRIG [E1K] | 1.7 kcal/mol
REERTFTNEEEARKAKKEAEKRGLRVTVTKDGTTWRVRIG [E1R] | 1.83 kcal/mol
SEERTFTNEEEARKAKKEAEKRGLRVTVTKDGTTWRVRIG [E1S] | 2.02 kcal/mol
EENRTFTNEEEARKAKKEAEKRGLRVTVTKDGTTWRVRIG [E3N] | 1.37 kcal/mol
EEWRTFTNEEEARKAKKEAEKRGLRVTVTKDGTTWRVRIG [E3W] | 2.3 kcal/mol
EEVRTFTNEEEARKAKKEAEKRGLRVTVTKDGTTWRVRIG [E3V] | 2.33 kcal/mol
EERRTFTNEEEARKAKKEAEKRGLRVTVTKDGTTWRVRIG [E3R] | 0.931 kcal/mol
EEFRTFTNEEEARKAKKEAEKRGLRVTVTKDGTTWRVRIG [E3F] | 2 kcal/mol
EESRTFTNEEEARKAKKEAEKRGLRVTVTKDGTTWRVRIG [E3S] | 1.66 kcal/mol
EETRTFTNEEEARKAKKEAEKRGLRVTVTKDGTTWRVRIG [E3T] | 1.99 kcal/mol
EEIRTFTNEEEARKAKKEAEKRGLRVTVTKDGTTWRVRIG [E3I] | 2.48 kcal/mol
EEHRTFTNEEEARKAKKEAEKRGLRVTVTKDGTTWRVRIG [E3H] | 1.42 kcal/mol
EEMRTFTNEEEARKAKKEAEKRGLRVTVTKDGTTWRVRIG [E3M] | 1.88 kcal/mol
EEARTFTNEEEARKAKKEAEKRGLRVTVTKDGTTWRVRIG [E3A] | 1.34 kcal/mol
EEDRTFTNEEEARKAKKEAEKRGLRVTVTKDGTTWRVRIG [E3D] | 1.67 kcal/mol
EEQRTFTNEEEARKAKKEAEKRGLRVTVTKDGTTWRVRIG [E3Q] | 1.44 kcal/mol
EEPRTFTNEEEARKAKKEAEKRGLRVTVTKDGTTWRVRIG [E3P] | 0.936 kcal/mol
EEYRTFTNEEEARKAKKEAEKRGLRVTVTKDGTTWRVRIG [E3Y] | 2.08 kcal/mol

Variant | folding stability dG
EELRTFTNEEEARKAKKEAEKRGLRVTVTKDGTTWRVRIG [E3L] | 2 kcal/mol
EEKRTFTNEEEARKAKKEAEKRGLRVTVTKDGTTWRVRIG [E3K] | 0.758 kcal/mol
EEGRTFTNEEEARKAKKEAEKRGLRVTVTKDGTTWRVRIG [E3G] | 1.28 kcal/mol
EHERTFTNEEEARKAKKEAEKRGLRVTVTKDGTTWRVRIG [E2H] | 2.12 kcal/mol
EVERTFTNEEEARKAKKEAEKRGLRVTVTKDGTTWRVRIG [E2V] | 2.3 kcal/mol
ENERTFTNEEEARKAKKEAEKRGLRVTVTKDGTTWRVRIG [E2N] | 1.81 kcal/mol
ETERTFTNEEEARKAKKEAEKRGLRVTVTKDGTTWRVRIG [E2T] | 2.18 kcal/mol
EKERTFTNEEEARKAKKEAEKRGLRVTVTKDGTTWRVRIG [E2K] | 1.73 kcal/mol
EIERTFTNEEEARKAKKEAEKRGLRVTVTKDGTTWRVRIG [E2I] | 2.5 kcal/mol
EYERTFTNEEEARKAKKEAEKRGLRVTVTKDGTTWRVRIG [E2Y] | 2.85 kcal/mol
ERERTFTNEEEARKAKKEAEKRGLRVTVTKDGTTWRVRIG [E2R] | 1.97 kcal/mol
ELERTFTNEEEARKAKKEAEKRGLRVTVTKDGTTWRVRIG [E2L] | 2.26 kcal/mol
EAERTFTNEEEARKAKKEAEKRGLRVTVTKDGTTWRVRIG [E2A] | 1.75 kcal/mol
EQERTFTNEEEARKAKKEAEKRGLRVTVTKDGTTWRVRIG [E2Q] | 1.99 kcal/mol
EPERTFTNEEEARKAKKEAEKRGLRVTVTKDGTTWRVRIG [E2P] | 1.43 kcal/mol
ESERTFTNEEEARKAKKEAEKRGLRVTVTKDGTTWRVRIG [E2S] | 2.06 kcal/mol
EFERTFTNEEEARKAKKEAEKRGLRVTVTKDGTTWRVRIG [E2F] | 2.6 kcal/mol
EDERTFTNEEEARKAKKEAEKRGLRVTVTKDGTTWRVRIG [E2D] | 1.75 kcal/mol
EMERTFTNEEEARKAKKEAEKRGLRVTVTKDGTTWRVRIG [E2M] | 2.16 kcal/mol
EWERTFTNEEEARKAKKEAEKRGLRVTVTKDGTTWRVRIG [E2W] | 2.86 kcal/mol
EGERTFTNEEEARKAKKEAEKRGLRVTVTKDGTTWRVRIG [E2G] | 1.66 kcal/mol
